The values below come from patent US20140357845A1.

In assay [1] the target is s-H1 Full-length R343Q (A/Brisbane/59/2007), trimeric form (influenza A virus H1N1), B4URD6. As to conditions: remark: other sources report otherwise.
The target of assay [2] is s-H1 Full-length R343Q (A/Brisbane/59/2007), monomeric form (influenza A virus H1N1), B4URD6. As to conditions: remark: other sources report otherwise.

B1: CR6261 (antibody, V domains shown)
VH: EVQLVESGAEVKKPGSSVKVSCKASGGPFRSYAISWVRQAPGQGPEWMGGIIPIFGTTKYAPKFQGRVTITADDFAGTVYMELSSLRSEDTAMYYCAKHMGYQVRETMDVWGKGTTVTVSS
VL: QSVLTQPPSVSAAPGQKVTISCSGSSSNIGNDYVSWYQQLPGTAPKLLIYDNNKRPSGIPDRFSGSKSGTSATLGITGLQTGDEANYYCATWDRRPTAYVVFGGGTKLTVLG
With B1, the BLI response is 1.3 nm in assay [1] and 0.9 nm in assay [2].
